# Source: US20240409645A1
# T1: mouse IL-2Rβ (mouse) (UniProt P16297)
# T1 sequence (looked up): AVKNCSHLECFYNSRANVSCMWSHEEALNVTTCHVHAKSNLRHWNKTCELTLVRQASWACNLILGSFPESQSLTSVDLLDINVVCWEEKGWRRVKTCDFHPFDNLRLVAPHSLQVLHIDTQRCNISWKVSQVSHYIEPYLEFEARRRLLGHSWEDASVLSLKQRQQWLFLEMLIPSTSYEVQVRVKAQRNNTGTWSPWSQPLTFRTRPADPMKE
# Biological target: T1, mouse IL-2Rβ (mouse)
# Assay: P.E. ELISA, coated protein
row,P.E. binding ELISA OD,Binder
1,0.048 OD450 nm,FJ1427_P035MP02F03 (VHH) VHH: EVQLVESGGGLVQAGGSLRLSCAASGGTFSSYAMGWFRQAPGKEREFVAATTRGGGRTMYAVSTEGRFTCSRDNAKNTVYLLMNSLKPEDTAVYYCAAMTSYYSGTYYPDSSDFDIWGQGTQVTVSS
2,0.05 OD450 nm,FJ1427 P035MP02H04 (VHH) VHH: QVQLVESGGGLVQAGDSLRLSCATSGLTFSSYALGWFRQAPGKKREFVAATTRGGGRTMYAVSTEGRFTCSRDNDKNTVYLLMNSLKPKDTAVYYCAAMTSYYSGTYYPDSSDFDIWGQGTQVTVSS
3,0.048 OD450 nm,FJ1427_P035MP02E04 (VHH) VHH: EVQLVESGGGLVQAGGSLRLSCAASGGTFSSYAMGWFRQAPGKEREFVAATTRGGGRTMYAVSTEGRFTCSRDNAKNTVYLQMNSLKPKDTAIYYCAAMTSYYSGTYYPDSSDFDIWGQGTQVTVSS
4,0.047 OD450 nm,FJ1427_P035MP02B04 (VHH) VHH: EVQLVESGGGLVQAGGSLGLSCAASGGTFSSYAMGWFRQAPGKEREFVAATTRGGGRTMYAVSTEGRFTCSRDNAKNTVYLQMNSLKPKDTAIYYCAAMTSYYSGTYYPDSSDFDIWGQGTQVTVSS
5,0.048 OD450 nm,FJ1427_P035MP02A06 (VHH) VHH: QVQLQESGGGLVQAGGSLRLSCAASGGTFSSYAMGWFRQAPGKEREFVAATTRGGGRTMYAVSTEGRFTCSRDNDKNTVYLLMNSLKPKDTAVYYCAAMTSYYSGTYYPDSSDFDIWGQGTQVTVSS
6,0.046 OD450 nm,FJ1427_P035MP02D07 (VHH) VHH: EVQLVESGGGLVQAGGSLRLSCAASGRSLSTTEMGWFRQAPGKEREFVAAITWSGRGTMYAESVEGRFAVSRENAKNTVYLQMNSLKPEDTAIYYCAAARRGRAAVRSEGGYDFWGQGTQVTVSS
7,0.047 OD450 nm,FJ1427_P035MP02F06 (VHH) VHH: EVQLVESGGGLVQTGGSLRLSCAASGSRFISDFMGWYRQVPGKQRELVADMADGGSARYGDSVKGRFTILRESGNATAYLQMSSLKPEDTGVYYCKAGLWIAGRHFDYWGQGTQVTVSS
8,0.048 OD450 nm,FJ1427_P035MP02E05 (VHH) VHH: EVQLVESGGGLVQIGGSLRLSCAASGRTFSSITMAYFRQVPGKEHEWVAGINFSGTRTFYADSVKGRFLISRDDAKSTMYLQMNSLKPEDTAVYYCAASPRGFYGPGNALYDYWGQGTQVTVSS
9,0.046 OD450 nm,FJ1427 P035MP02B07 (VHH) VHH: EVQLVESGGGLVEAGGSLRLSCAASGRAFNNFPMGWFRQAPGKEREFVAAITWISGSTLYADSVKGRFTISRDKSKNTVYLQMSGLKPEDTALYYCAAALKTITRGQHDYTYWGQGTQVTVSS
10,0.048 OD450 nm,FJ1427_P035MP02D04 (VHH) VHH: QVQLVESGGGLVQTGGSLRLSCAVSGSRFISDVMGWYRQVPGKQRELVADMADGGSAKYADSVKGRFSILRDSVKNTVYLQMSSLKPEDTGIYYCKAGLWIAGRHSDYWGQGTQVTVSS
11,0.048 OD450 nm,FJ1427_P035MP02F05 (VHH) VHH: EVQLVESGGGLVQTGGSLRLSCAVSGSRFISDVMGWYRQVPGKQRELVADMADGGSAKYADSVKGRFSILRDSVKNTVYLQMSSLKPEDTGIYYCKAGLWIAGRHSDYWGQGTQVTVSS
12,0.047 OD450 nm,FJ1427 P035MP02C05 (VHH) VHH: QVQLVESGGGLVQTGGSLRLSCAVSGSRFISDVMGWYRQVPGKQRELVADMADGGSAKYADSVKGRFSILRDSVKNTVYLQMSSLKPEDTGIYYCKAGLWIAGRHSDYWGQGTQVTVSS
13,0.048 OD450 nm,FJ1427 P035MP02A04 (VHH) VHH: EVQLVESGGGLVQTGGSLRLSCTASGSQFINDVMGWYRQVPGKQRELVADMDDTGSTKYADSVNGRFTILRDSVKNTAYLQMSNLKPEDTGVYYCKAGLWIKGRHSDYWGQGTQVTVSS
14,0.047 OD450 nm,FJ1427_P035MP02A05 (VHH) VHH: EVQLVESGGGLVQTGGSLRLSCAASGSQFINDVMGWYRQVPGKQRELVADMDDTGSTKYADSVKGRFTILRDSVKNTAYLQMSNLKPEDTGVYYCKAGLWIKGRHSDYWGQGTQVTVSS
15,0.047 OD450 nm,FJ1427_P035MP02D06 (VHH) VHH: EVQLVESGGGLVQTGGSLRLSCAASGSQFINDVMGWYRQVPGKQRELVADMDDTGSTKYADSVKGRFTILRDSVKNTAYLQMSNLKPEDTGVYYCKAGLWIKGRHSDYWGQGTQVTVSS
16,0.048 OD450 nm,FJ1427_P035MP02G04 (VHH) VHH: QVQLVESGGGLVQAGGSLRLSCAASGSQFINDVMGWYRQVPGKQRELVADMDDTGSTKYADSVKGRFTILRDSVKNTAYLQMSNLKPEDTGVYYCKAGLWIKGRHFDYWGQGTQVTVSS

row,P.E. binding ELISA OD,Binder
1,0.048 OD450 nm,FJ1427_P035MP02B05 (VHH) VHH: EVQLVESGGGLVQTGGSLRLSCAASGSQFINDVMGWYRQVPGKQRELVADMDDTGSTKYADSVKGRFTILRDSVKNTAYLQMSNLKPEDTGVYYCKAGLWIKGRHFDYWGQGTQVTVSS
2,0.048 OD450 nm,FJ1427 P035MP02G05 (VHH) VHH: EVQLVESGGGLVQTGGSLRLSCAASGSQFINDVTGWYRQVPGKQRELVADMDDTGSTKYADSVKGRFTILRDSVKNTAYLQMSNLKPEDTGVYYCKAGLWIKGRHSDYWGQGTQVTVSS
3,0.048 OD450 nm,FJ1427 P035MP02F04 (VHH) VHH: EVQLVESGGGLVQTGGSLRLSCAASGSQFINDVMGWYRQVPGKQRELVADMDDTGSTKYADSVKGRFTILRDSVKNTAYLQMSNLKPEDTGVYYCKAGLWIKGRHFDYWGQGTQVTVSS
4,0.049 OD450 nm,FJ1427_P035MP02E03 (VHH) VHH: EVQLVESGGGSVQTGGSLRLSCVVSGSHFISDVMGWYRQVPGKQRELVADMADGGSVKYGDSVKGRFTILRDSVKNTVTLQMSSLNPEDTGVYYCKAGLWITGRHFDYWGQGTQVTVTS
5,0.049 OD450 nm,FJ1427 P035MP02H05 (VHH) VHH: EVQLVESGGGSVQTGGSLRLSCVVSGSHFISDVMGWYRQVPGKQRELVADMADGGSAKYGDSVKGRFTILRDSVKNTVTLQMSSLNPEDTGVYYCKAGLWITGRHSDYWGQGTQVTVTS
6,0.048 OD450 nm,FJ1427_P035MP02F08 (VHH) VHH: QVQLVESGGGLVQAGGSLRLSCAASGSIFSLNTMGWFRQAPGKEREFVAAISRSGGSATYGDSVKGRFTISTNNAKTTVYLQMNSLKPDDTAVYSCAASAAVGWTTRWSTIDFDSWGQGTQVTVSS
7,0.047 OD450 nm,FJ1427 P035MP02C08 (VHH) VHH: EVQLVESGGGLVQAGGSLRLSCAASGSTFSRQPMYWFRQAPGKEREFVAAITWSGRGTLYADSVEGRFTISRDNAKNTVYLQMNSLRPDDTAAYYCAAGPYGDAAYRHGRIDSWGQGTQVTVSS
8,0.046 OD450 nm,FJ1427_P035MP02C07 (VHH) VHH: QVQLVESGGGLVQAGGSLRLSCAASGRTFSINTMGWFRQAPGKEREFVAAISRSGDSTVYVDSVKGRFTISRDNAKNTVYLQMNTLKPEDTAVYYCATTVAVGWTTRWSTIDFDSWGQGTQVTVSS
9,0.069 OD450 nm,FJ1427_P035MP02A08 (VHH) VHH: EVQLVESGGGLVQAGGSLRLSCTVSGDVFVRYTMAWFRQAPGKEREFVATVTDSGRTTEYVDSVKGRFTVSRDNAKNTVYLQMNNLKPEDTAVYYCAANTDYFRIRSLDANTWGQGTQVTVSS
10,0.058 OD450 nm,FJ1427_P035MP02E08 (VHH) VHH: EVQLVESGGGLVQAGGSLRLSCVVSGDVFVRYTMAWFRQAPGKEREFVAVVTDSGRTTEYVDSVKGRFTVSRDNAKNTVYLQMNNLKPEDTAVYYCAANTDYFQIRSVDNNAWGQGTQVTVSS
11,0.048 OD450 nm,FJ1427 P035MP02D08 (VHH) VHH: EVQLVESGGGLVQAGGSLRLSCVVSGDVFVRYTMAWFRQAPGKEREFVTSITDSGRTTEYVDSVKGRFTVSRDNAKNTVYLQMNNLKPEDTAVYYCAANTDYFRIRSLDANTWGQGTQVTVSS
12,0.049 OD450 nm,FJ1427_P035MP02G03 (VHH) VHH: QVQLVESGGGLVQPGGSLGLSCAASGFTFSNYAMSWVRQAPGKGLEWVASITGFGRGTDYADSVKGRFTVSRDNAKNTLYLQMNSLKPEDTAVYYCAKYSSSTYYPPTPARGRDYRGQGTQVTVSS
13,0.047 OD450 nm,FJ1427_P035MP02C04 (VHH) VHH: QVQLVESGGGLVQPGGSLELSCAASGFTFSNYAMSWVRQAPGKGLEWVSSITGFGRGTDYADSVKGRFTISRDNDKNTLYLQMNSLKPEDTAVYYCARYSSSTYYPPTPARGRDYRGQGTQVTVSS
14,0.049 OD450 nm,FJ1427 P035MP02D05 (VHH) VHH: QVQLVESGGGLVQPGESLGLSCAASGFTFSNYAMSWVRQAPGKGLEWVSSITGAGRGTDYADSVKGRFTISRDNAKNTLYLQMNSLKPEDTAVYYCAKYSSGTYYPPTPVRGTDYRGQGTQVTVSS
15,0.047 OD450 nm,FJ1427 P035MP02C06 (VHH) VHH: QLQLVESGGGLVQPGGSLELSCAASGFTFSNYAMSWVRQAPGKGLEWVSSITGFGRGTDYADSVKGRFTISRDNAKNTLYLQMNSLKPEDTAVYYCARYSSSTYYPPTPARGRDYRGQGTQVTVSS
16,0.047 OD450 nm,FJ1427_P035MP02B06 (VHH) VHH: QVQLVESGGGLVQPGESLGLSCAASGFTFSNYAMSWVRQAPGKGLEWVSSITGAGRGTDYADSVKGRFTISRDNAKNTLYLQMNSLKPEDTAVYYCAKYSSGTYYPPTPVRGTDYRGQGTQVTVSS
